Assay results published in PMC3506534, “LL-37 Induces Polymerization and Bundling of Actin and Affects Actin Structure” (PLoS ONE, 2012).

Target: rabbit skeletal muscle α-actin (rabbit) (UniProt P68135)

Sequence of DNase1 (P00639 23-282): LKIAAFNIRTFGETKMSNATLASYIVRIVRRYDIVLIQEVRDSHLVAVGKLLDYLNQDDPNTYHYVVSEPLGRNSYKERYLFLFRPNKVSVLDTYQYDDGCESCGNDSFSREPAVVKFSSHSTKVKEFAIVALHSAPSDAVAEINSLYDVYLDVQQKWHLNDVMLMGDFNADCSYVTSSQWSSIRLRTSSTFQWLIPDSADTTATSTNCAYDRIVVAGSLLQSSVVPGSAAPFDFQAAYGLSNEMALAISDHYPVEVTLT

- disappearance of Mg-F-actin bundles (bundled by 9 µM LL-37) and depolymerization of the filaments after 6 µM DNase1 (low and high speed sedimentation): 100%
Substance: DNase1 (from UniProt P00639 23-282) (enzyme)
